Article PMC6368335, “Inhibition of the Staphylococcus aureus c-di-AMP cyclase DacA by direct interaction with the phosphoglucosamine mutase GlmM” (PLoS Pathogens, 2019)

Legend:
[1] = target: S. aureus DacA catalytic domain (DacACD), tag-less (S. aureus); test: SEC; tag-less proteins after Ni-NTA and thrombin cleavage on a Superdex 200 10/300 column, UV at 280 nm
[2] = target: S. aureus phosphoglucosamine mutase GlmM, tag-less (S. aureus) (UniProt P0C0V7); test: SEC-MALS + native MS; purified tag-less DacACD/GlmM complex; SEC-MALS: 100 ul at 18 mg/ml, Superdex 200 Increase 10/300, 30 mM Tris pH 7.5, 150 mM NaCl; native MS: 13.5 uM in 200 mM ammonium acetate
[3] = target: S. aureus phosphoglucosamine mutase GlmM, tag-less (S. aureus) (UniProt P0C0V7); test: native MS; purified tag-less DacACD/GlmM complex, 13.5 uM in 200 mM ammonium acetate pH 7.5, nanoelectrospray, Waters Synapt QToF; species deconvoluted with Amphitrite; conditions: scale: DacACD per GlmM
[4] = target: S. aureus DacA catalytic domain (DacACD), tag-less (S. aureus); test: as above
[5] = target: S. aureus phosphoglucosamine mutase GlmM, C-terminally His-tagged (GlmM-His) (S. aureus) (UniProt P0C0V7)
[6] = target: S. aureus phosphoglucosamine mutase GlmM, tag-less (S. aureus) (UniProt P0C0V7); test: SEC-SAXS; tag-less DacACD, GlmM and the DacACD/GlmM complex on a Superdex 200 5/150 column coupled to the SAXS beam, 30 mM Tris pH 7.5, 150 mM NaCl; envelopes reconstructed, crystal structures fitted
[7] = target: S. aureus DacA catalytic domain (DacACD), tag-less (S. aureus); test: as above
[8] = target: S. aureus DacACD-C variant (N166C, T172C), tag-less (S. aureus); test: SEC; tag-less proteins after Ni-NTA and thrombin cleavage on a Superdex 200 10/300 column, UV at 280 nm
[9] = target: S. aureus DacACD-K variant (N166K, T172K), tag-less (S. aureus); test: as above
[10] = target: the molecule itself; test: native MS; purified tag-less DacACD/GlmM complex, 13.5 uM in 200 mM ammonium acetate pH 7.5, nanoelectrospray, Waters Synapt QToF; species deconvoluted with Amphitrite

S. aureus DacA catalytic domain (DacACD), tag-less (domain or fragment)
stoichiometry N [1]: 2 | stoichiometry N (DacACD dimer per GlmM dimer (2:2)) [2]: 1 | stoichiometry N [3]: 1 | stoichiometry N [4]: 2 | GlmM phosphoglucosamine mutase activity (coupled radioactive assay with GlmU), DacA in 5- to 400-fold excess over GlmM; no inhibition at 5- to 50-fold excess [5]: 15% | stoichiometry N (DacACD dimer per GlmM dimer) [6]: 1 | stoichiometry N [7]: 2

S. aureus DacACD-C variant (N166C, T172C), tag-less (domain or fragment)
stoichiometry N [8]: 2

S. aureus DacACD-K variant (N166K, T172K), tag-less (domain or fragment)
stoichiometry N [9]: 2

B1: S. aureus phosphoglucosamine mutase GlmM, tag-less (enzyme)
chain: MGKYFGTDGVRGVANQELTPELAFKLGRYGGYVLAHNKGEKHPRVLVGRDTRVSGEMLESALIAGLISIGAEVMRLGIISTPGVAYLTRDMGAELGVMISASHNPVADNGIKFFGSDGFKLSDEQENEIEALLDQENPELPRPVGNDIVHYSDYFEGAQKYLSYLKSTVDVNFEGLKIALDGANGSTSSLAPFLFGDLEADTETIGCSPDGYNINEKCGSTHPEKLAEKVVETESDFGLAFDGDGDRIIAVDENGQIVDGDQIMFIIGQEMHKNQELNNDMIVSTVMSNLGFYKALEQEGIKSNKTKVGDRYVVEEMRRGNYNLGGEQSGHIVMMDYNTTGDGLLTGIQLASVIKMTGKSLSELAGQMKKYPQSLINVRVTDKYRVEENVDVKEVMTKVEVEMNGEGRILVRPSGTEPLVRVMVEAATDEDAERFAQQIADVVQDKMGLDK
notes: phosphoglucosamine mutase GlmM of S. aureus (LAC* genomic DNA); C-terminal 6-His tag removed at the thrombin site; In the tag-less DacACD/GlmM complex (SASBDB SASDE78) this chain stands with m1; also called tag-less GlmM; source: E. coli BL21 (DE3), purified (Ni-NTA, thrombin cleavage of the His-tag, size exclusion chromatography); not shown: His6, C-terminal, cleaved
stoichiometry N [10]: 2
